B1: SH3 and multiple ankyrin repeat domains protein 3 (Homo sapiens), Q9BYB0-1 (parent)
chain: MQLSRAAAAAAAAPAEPPEPLSPAPAPAPAPPGPLPRSAADGAPAGGKGGPGRRAESPGAPFPGASGPGPGPGAGMDGPGASAVVVRVGIPDLQQTKCLRLDPAAPVWAAKQRVLCALNHSLQDALNYGLFQPPSRGRAGKFLDEERLLQEYPPNLDTPLPYLEFRYKRRVYAQNLIDDKQFAKLHTKANLKKFMDYVQLHSTDKVARLLDKGLDPNFHDPDSGECPLSLAAQLDNATDLLKVLKNGGAHLDFRTRDGLTAVHCATRQRNAAALTTLLDLGASPDYKDSRGLTPLYHSALGGGDALCCELLLHDHAQLGITDENGWQEIHQACRFGHVQHLEHLLFYGADMGAQNASGNTALHICALYNQESCARVLLFRGANRDVRNYNSQTAFQVAIIAGNFELAEVIKTHKDSDVVPFRETPSYAKRRRLAGPSGLASPRPLQRSASDINLKGEAQPAASPGPSLRSLPHQLLLQRLQEEKDRDRDADQESNISGPLAGRAGQSKISPSGPGGPGPAPGPGPAPPAPPAPPPRGPKRKLYSAVPGRKFIAVKAHSPQGEGEIPLHRGEAVKVLSIGEGGFWEGTVKGRTGWFPADCVEEVQMRQHDTRPETREDRTKRLFRHYTVGSYDSLTSHSDYVIDDKVAVLQKRDHEGFGFVLRGAKAETPIEEFTPTPAFPALQYLESVDVEGVAWRAGLRTGDFLIEVNGVNVVKVGHKQVVALIRQGGNRLVMKVVSVTRKPEEDGARRRAPPPPKRAPSTTLTLRSKSMTAELEELASIRRRKGEKLDEMLAAAAEPTLRPDIADADSRAATVKQRPTSRRITPAEISSLFERQGLPGPEKLPGSLRKGIPRTKSVGEDEKLASLLEGRFPRSTSMQDPVREGRGIPPPPQTAPPPPPAPYYFDSGPPPAFSPPPPPGRAYDTVRSSFKPGLEARLGAGAAGLYEPGAALGPLPYPERQKRARSMIILQDSAPESGDAPRPPPAATPPERPKRRPRPPGPDSPYANLGAFSASLFAPSKPQRRKSPLVKQLQVEDAQERAALAVGSPGPGGGSFAREPSPTHRGPRPGGLDYGAGDGPGLAFGGPGPAKDRRLEERRRSTVFLSVGAIEGSAPGADLPSLQPSRSIDERLLGTGPTAGRDLLLPSPVSALKPLVSGPSLGPSGSTFIHPLTGKPLDPSSPLALALAARERALASQAPSRSPTPVHSPDADRPGPLFVDVQARDPERGSLASPAFSPRSPAWIPVPARREAEKVPREERKSPEDKKSMILSVLDTSLQRPAGLIVVHATSNGQEPSRLGGAEEERPGTPELAPAPMQSAAVAEPLPSPRAQPPGGTPADAGPGQGSSEEEPELVFAVNLPPAQLSSSDEETREELARIGLVPPPEEFANGVLLATPLAGPGPSPTTVPSPASGKPSSEPPPAPESAADSGVEEADTRSSSDPHLETTSTISTVSSMSTLSSESGELTDTHTSFADGHTFLLEKPPVPPKPKLKSPLGKGPVTFRDPLLKQSSDSELMAQQHHAASAGLASAAGPARPRYLFQRRSKLWGDPVESRGLPGPEDDKPTVISELSSRLQQLNKDTRSLGEEPVGGLGSLLDPAKKSPIAAARLFSSLGELSSISAQRSPGGPGGGASYSVRPSGRYPVARRAPSPVKPASLERVEGLGAGAGGAGRPFGLTPPTILKSSSLSIPHEPKEVRFVVRSVSARSRSPSPSPLPSPASGPGPGAPGPRRPFQQKPLQLWSKFDVGDWLESIHLGEHRDRFEDHEIEGAHLPALTKDDFVELGVTRVGHRMNIERALRQLDGS
B2: SH3 and multiple ankyrin repeat domains protein 2 (Rattus norvegicus (Rat)), Q9QX74-7 (parent)
chain: MPRSPTSSEDEMAQSFSDYSVGSESDSSKEETIYDTIRATTEKPGGVKMEDLQGNTLVIRVVIQDLQQTKCIRFNPDATVWVAKQRILCTLNQGLKDVLNYGLFQPASNGRDGKFLDEERLLREYPQPMGQGVPSLEFRYKKRVYKQSNLDEKQLARLHTKTNLKKFMDHTQHRSVEKLVKLLDRGLDPNFHDLETGETPLTLAAQLDGSMEVIKALRNGGAHLDFRSRDGMTALHKAARMRNQVALKTLLELGASPDYKDSYGLTPLYHTAIVGGDPYCCELLLHEHASVCCKDENGWHEIHQACRYGHVQHLEHLLFYGADMSAQNASGNTALHICALYNQDSCARVLLFRGGDKELKNYNSQTPFQVAIIAGNFELAEYIKNHKETDIVPFREAPAYSNRRRRPPNTLAAPRVLLRSNSDNNLNAGAPEWAVCSAATSHRSLSPQLLQQTPSKPDGATKSLGSYAPGPRSRSPSLNRLGGAGEDGKRPQPPHWHVGSPFTPGANKDSLSTFEYPGPRRKLYSAVPGRLFVAIKPYQPQVDGEIPLHRGDRVKVLSIGEGGFWEGSARGHIGWFPAECVEEVQCKPRDSQAETRADRSKKLFRHYTVGSYDSFDAASDCIIEDKTVVLQKKDNEGFGFVLRGAKADTPIEEFTPTPAFPALQYLESVDEGGVAWQAGLRTGDFLIEVNNENVVKVGHRQVVNMIRQGGNHLVLKVVTVTRNLDPDDTARKKAPPPPKRAPTTALTLRSKSMTAELEELDKPEEIVPASKPSRTAENVAIESRVATIKQRPTSRCFPAASDVNSVYERQGIAVMTPTVPGSPKGPFLGLPRGTMRRQKSIDSRIFLSGITEEERQFLAPPMLKFTRSLSMPDTSEDIPPPPQSVPPSPPPPSPTTYNCPRSPTPRVYGTIKPAFNQNPVAKVPPATRSDTVATMMREKGMFYRRELDRFSLDSEDVYSRSPAPQAAFRTKRGQMPENPYSEVGKIASKAVYVPAKPARRKGMLVKQSNVEDSPEKTCSIPIPTIIVKEPSTSSSGKSSQGSSMEIDPQATEPGQLRPDDSLTVSSPFAAAIAGAVRDREKRLEARRNSPAFLSTDLGDEDVGLGPPAPRMQPSKFPEEGGFGDEDETEQPLLPTPGAAPRELENHFLGGGEAGAQGEAGGPLSSTSKAKGPESGPAAALKSSSPASPENYVHPLTGRLLDPSSPLALALSARDRAMQESQQGHKGEAPKADLNKPLYIDTKMRPSVESGFPPVTRQNTRGPLRRQETENKYETDLSKDRRADDKKNMLINIVDTAQQKSAGLLMVHTVDIPVAGPPLEEEEDREDGDTKPDHSPSTVPEGVPKTEGALQISAAPEPAAAPGRTIVAAGSVEEAVILPFRIPPPPLASVDLDEDFLFTEPLPPPLEFANSFDIPDDRAASVPALADLVKQKKSDTPQPPSLNSSQPANSTDSKKPAGISNCLPSSFLPPPESFDAVTDSGIEEVDSRSSSDHHLETTSTISTVSSISTLSSEGGESMDTCTVYADGQAFVVDKPPVPPKPKMKPIVHKSNALYQDTLPEEDTDGFVIPPPAPPPPPGSAQAGVAKVIQPRTSKLWGDVTEVKSPILSGPKANVISELNSILQQMNRGKSVKPGEGLELPVGAKSANLAPRSPEVMSTVSGTRSTTVTFTVRPGTSQPITLQSRPPDYESRTSGPRRAPSPVVSPTELSKEILPTPPSAAAASPSPTLSDVFSLPSQSPAGDLFGLNPAGRSRSPSPSILQQPISNKPFTTKPVHLWTKPDVADWLESLNLGEHKETFMDNEIDGSHLPNLQKEDLIDLGVTRVGHRMNIERALKQLLDR

Variants of: B1
Conditions: with cac1d_human CACNA1D

| Variant | effect of a mutation on the interaction |
| --- | --- |
| K555Y | with no effect |

Variants of: B2
Conditions: with cac1d_rat Cacna1d

| Variant | effect of a mutation on the interaction |
| --- | --- |
| S558D | with no effect |
| S558N | decreasing interaction strength |

— IntAct's records for PubMed 30058071
